Earlier results on one substance are cited in article PMC12394151.

For orientation: Kd means the concentration at which binding is half-saturated.

The series deals with IL-6R (Homo sapiens) (UniProt P08887). Put plainly: BLI. The note with it: cited from earlier work.
Chain of IL-6R (Homo sapiens) (P08887 20-355): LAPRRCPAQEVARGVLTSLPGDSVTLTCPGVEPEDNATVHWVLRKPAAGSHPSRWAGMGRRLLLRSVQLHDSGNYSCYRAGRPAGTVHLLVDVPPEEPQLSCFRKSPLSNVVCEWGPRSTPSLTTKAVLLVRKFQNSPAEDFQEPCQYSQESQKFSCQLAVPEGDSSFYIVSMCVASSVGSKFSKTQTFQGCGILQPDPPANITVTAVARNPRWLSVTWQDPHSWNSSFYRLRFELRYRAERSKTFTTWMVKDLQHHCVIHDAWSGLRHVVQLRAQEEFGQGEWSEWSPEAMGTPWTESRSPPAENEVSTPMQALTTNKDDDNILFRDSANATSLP

Turning to Tocilizumab, the Kd was 38.8 nM.
